According to patent publication US20050215503, “HIF oligonucleotide decoy molecules” (published 2005):

Target: HIF-1 (HIF-1alpha/HIF-1beta (ARNT) heterodimer) (UniProt Q16665;P27540 Q16665:1-826,P27540:2-789)
Experiment: competition; TransAM absorbance ratio vs wild-type control at 2.5; lower = better (all Table 2B lines); 1.22 in Table 5
Conditions: protein: extract; tags: none (endogenous, nuclear extract)

HIF-1 (HIF-1alpha/HIF-1beta (ARNT) heterodimer), sequence (Q16665 whole entry, chain 1 of 2): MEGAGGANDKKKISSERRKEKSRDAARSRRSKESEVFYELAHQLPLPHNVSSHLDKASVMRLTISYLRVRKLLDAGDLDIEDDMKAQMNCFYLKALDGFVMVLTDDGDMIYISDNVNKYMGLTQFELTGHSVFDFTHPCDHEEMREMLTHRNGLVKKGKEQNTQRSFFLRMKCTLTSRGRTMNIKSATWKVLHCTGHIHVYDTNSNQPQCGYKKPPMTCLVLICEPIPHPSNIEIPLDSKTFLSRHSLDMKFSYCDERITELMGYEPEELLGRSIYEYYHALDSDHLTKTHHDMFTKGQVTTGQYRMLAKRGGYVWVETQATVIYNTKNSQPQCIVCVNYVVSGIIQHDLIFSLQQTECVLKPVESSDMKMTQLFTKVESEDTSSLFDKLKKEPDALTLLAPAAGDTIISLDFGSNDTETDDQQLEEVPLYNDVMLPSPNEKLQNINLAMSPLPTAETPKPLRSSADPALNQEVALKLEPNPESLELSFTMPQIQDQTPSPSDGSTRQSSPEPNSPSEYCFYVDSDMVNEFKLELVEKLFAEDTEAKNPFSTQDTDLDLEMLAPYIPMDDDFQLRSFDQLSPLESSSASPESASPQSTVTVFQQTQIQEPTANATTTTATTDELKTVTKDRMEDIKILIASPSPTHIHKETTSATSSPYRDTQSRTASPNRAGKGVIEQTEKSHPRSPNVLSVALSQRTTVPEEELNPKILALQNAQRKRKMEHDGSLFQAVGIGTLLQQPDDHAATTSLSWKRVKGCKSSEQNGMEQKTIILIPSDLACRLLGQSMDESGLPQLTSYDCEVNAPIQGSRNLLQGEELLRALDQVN
HIF-1 (HIF-1alpha/HIF-1beta (ARNT) heterodimer), sequence (P27540 2-789, chain 2 of 2): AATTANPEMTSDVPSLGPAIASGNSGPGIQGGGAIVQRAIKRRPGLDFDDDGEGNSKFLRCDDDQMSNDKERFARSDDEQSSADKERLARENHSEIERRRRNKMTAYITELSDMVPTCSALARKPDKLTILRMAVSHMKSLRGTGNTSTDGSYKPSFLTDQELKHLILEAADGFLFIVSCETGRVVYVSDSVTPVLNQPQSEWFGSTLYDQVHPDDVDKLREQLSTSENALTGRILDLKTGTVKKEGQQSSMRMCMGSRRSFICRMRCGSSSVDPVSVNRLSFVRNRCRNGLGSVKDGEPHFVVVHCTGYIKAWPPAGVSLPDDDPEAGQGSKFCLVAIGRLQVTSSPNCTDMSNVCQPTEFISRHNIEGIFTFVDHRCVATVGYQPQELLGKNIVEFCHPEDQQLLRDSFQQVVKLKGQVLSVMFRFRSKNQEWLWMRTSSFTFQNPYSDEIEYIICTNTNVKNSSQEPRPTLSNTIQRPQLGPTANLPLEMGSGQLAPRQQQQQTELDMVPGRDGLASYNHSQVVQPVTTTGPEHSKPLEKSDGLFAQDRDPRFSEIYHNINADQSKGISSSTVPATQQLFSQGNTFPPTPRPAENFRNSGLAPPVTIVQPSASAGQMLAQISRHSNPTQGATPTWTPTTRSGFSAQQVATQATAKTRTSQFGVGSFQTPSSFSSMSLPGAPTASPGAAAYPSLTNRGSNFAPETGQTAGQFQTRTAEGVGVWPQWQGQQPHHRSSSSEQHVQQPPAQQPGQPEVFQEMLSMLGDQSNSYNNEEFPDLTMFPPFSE

B1: decoy 895/896 (dsDNA)
DNA 1: CACCAGCGTACGTGCCTCAGG
DNA 2: CCTGAGGCACGTACGCTGGTG
  binding signal: 1.13 ratio
